# Legend:
# EPHB2 = EPHB2 (UniProt P29323); assay: phosphorylation enrichment, bacterial display (enrichment ratio); higher = better substrate or ligand; peptides without Tyr show the background
# Fer (mouse) = assay: as above
# EPHB1 = EPHB1 (UniProt P54762); assay: as above
# Fes = Fes (UniProt P07332); assay: as above
# Fyn = Fyn (UniProt P06241); assay: as above
# Jak2 = Jak2 (UniProt O60674); assay: as above
# AncSZ = assay: as above
# MERTK = MERTK (UniProt Q12866); assay: as above
# FGFR3 = FGFR3 (UniProt P22607); assay: as above
# c-Abl (mouse) = assay: as above
# FGFR1 = FGFR1 (UniProt P11362); assay: as above
# Hck = Hck (UniProt P08631); assay: as above
# c-Src = assay: as above
# SHP2-C SH2 = assay: SH2 binding enrichment of the phosphorylated peptide, bacterial display (enrichment ratio); higher = better substrate or ligand; peptides without Tyr show the background
# c-Src SH2 = assay: as above
# Grb2 SH2 = Grb2 SH2 (UniProt P62993); assay: as above
# 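Throughout, for SH2 binding enrichment of the phosphorylated peptide, bacterial display: peptide library displayed on the E. coli surface as eCPX fusions, selected cells deep-sequenced, score is each peptide's frequency after selection divided by its frequency in the input.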
# 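Throughout, for phosphorylation enrichment, bacterial display: 11-residue human phosphosite peptides and single-mutation variants displayed on the E. coli surface, counted by deep sequencing, each peptide's frequency after selection divided by its frequency in the unselected input library; frequency after pTyr selection over input frequency; kinase dosed for 20-30% of maximal phosphorylation in three min.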
# Chain of EPHB2 (P29323 whole entry, looked up): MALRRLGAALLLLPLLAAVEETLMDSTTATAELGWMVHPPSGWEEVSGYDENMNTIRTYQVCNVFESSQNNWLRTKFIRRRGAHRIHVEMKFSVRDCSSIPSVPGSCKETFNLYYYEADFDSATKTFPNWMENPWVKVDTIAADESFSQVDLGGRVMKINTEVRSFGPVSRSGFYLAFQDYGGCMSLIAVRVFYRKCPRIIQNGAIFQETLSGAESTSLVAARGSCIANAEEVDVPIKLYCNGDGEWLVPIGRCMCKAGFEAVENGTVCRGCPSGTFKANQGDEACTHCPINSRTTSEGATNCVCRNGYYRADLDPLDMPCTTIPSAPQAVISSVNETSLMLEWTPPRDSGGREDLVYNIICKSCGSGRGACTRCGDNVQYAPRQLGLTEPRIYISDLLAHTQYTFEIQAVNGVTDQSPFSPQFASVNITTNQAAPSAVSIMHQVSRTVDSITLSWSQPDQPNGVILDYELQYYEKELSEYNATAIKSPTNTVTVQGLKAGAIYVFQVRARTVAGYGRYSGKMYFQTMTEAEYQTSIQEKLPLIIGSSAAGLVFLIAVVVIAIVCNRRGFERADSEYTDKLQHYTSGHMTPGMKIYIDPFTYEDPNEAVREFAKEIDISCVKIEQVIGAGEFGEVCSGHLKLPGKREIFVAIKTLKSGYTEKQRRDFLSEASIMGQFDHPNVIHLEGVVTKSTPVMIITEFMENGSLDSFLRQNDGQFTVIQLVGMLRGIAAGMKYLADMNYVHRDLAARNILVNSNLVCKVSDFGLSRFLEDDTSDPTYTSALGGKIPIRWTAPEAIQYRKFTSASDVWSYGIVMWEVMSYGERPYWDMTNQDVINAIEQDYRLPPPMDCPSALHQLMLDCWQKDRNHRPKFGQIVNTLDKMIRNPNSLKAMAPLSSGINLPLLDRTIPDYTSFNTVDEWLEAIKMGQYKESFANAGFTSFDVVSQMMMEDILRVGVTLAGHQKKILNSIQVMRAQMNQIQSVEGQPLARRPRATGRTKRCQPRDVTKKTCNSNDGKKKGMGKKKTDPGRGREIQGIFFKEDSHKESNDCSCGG
# Chain of Jak2 (O60674 whole entry, looked up): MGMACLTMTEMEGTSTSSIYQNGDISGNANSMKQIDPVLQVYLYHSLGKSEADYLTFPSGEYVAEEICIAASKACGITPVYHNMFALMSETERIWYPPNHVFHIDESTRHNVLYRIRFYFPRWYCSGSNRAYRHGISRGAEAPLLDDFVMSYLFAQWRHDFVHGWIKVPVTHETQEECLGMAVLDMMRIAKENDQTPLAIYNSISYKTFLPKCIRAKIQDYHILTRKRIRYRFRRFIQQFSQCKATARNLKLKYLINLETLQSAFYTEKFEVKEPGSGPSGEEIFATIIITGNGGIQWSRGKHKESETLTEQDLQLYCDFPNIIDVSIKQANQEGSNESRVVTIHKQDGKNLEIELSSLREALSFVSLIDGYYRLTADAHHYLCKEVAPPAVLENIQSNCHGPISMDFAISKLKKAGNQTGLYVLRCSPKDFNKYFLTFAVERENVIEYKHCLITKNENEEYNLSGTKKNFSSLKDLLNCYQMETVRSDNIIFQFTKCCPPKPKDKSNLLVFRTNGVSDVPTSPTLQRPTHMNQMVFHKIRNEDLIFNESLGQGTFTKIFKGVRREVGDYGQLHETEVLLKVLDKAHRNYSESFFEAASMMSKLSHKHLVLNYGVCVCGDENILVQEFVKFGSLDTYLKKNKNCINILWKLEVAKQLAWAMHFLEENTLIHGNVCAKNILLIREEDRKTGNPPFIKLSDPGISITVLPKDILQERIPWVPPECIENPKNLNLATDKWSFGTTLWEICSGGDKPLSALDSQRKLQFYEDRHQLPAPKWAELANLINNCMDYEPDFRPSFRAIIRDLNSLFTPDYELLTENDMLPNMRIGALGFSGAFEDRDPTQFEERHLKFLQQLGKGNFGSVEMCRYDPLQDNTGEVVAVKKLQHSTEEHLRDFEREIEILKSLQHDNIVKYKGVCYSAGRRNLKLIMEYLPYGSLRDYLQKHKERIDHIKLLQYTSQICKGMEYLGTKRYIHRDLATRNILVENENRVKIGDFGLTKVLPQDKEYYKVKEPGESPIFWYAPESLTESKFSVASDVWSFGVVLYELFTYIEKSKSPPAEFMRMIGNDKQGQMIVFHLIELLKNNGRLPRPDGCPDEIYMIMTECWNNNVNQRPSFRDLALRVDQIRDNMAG
# Chain of Fyn (P06241 whole entry, looked up): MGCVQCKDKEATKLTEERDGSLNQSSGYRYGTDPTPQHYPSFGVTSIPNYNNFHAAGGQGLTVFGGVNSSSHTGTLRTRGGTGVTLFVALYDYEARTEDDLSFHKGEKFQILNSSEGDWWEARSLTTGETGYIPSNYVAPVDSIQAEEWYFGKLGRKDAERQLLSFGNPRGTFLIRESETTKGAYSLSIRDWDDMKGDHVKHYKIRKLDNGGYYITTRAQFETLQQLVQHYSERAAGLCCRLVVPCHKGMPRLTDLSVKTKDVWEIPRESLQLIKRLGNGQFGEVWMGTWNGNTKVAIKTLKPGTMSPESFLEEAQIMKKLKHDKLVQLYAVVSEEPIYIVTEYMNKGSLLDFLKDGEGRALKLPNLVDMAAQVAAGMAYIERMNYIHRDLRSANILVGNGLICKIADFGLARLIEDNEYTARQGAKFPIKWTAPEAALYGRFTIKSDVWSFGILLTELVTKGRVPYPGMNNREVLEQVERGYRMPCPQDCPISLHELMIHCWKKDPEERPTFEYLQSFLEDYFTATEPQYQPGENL
# Chain of EPHB1 (P54762 whole entry, looked up): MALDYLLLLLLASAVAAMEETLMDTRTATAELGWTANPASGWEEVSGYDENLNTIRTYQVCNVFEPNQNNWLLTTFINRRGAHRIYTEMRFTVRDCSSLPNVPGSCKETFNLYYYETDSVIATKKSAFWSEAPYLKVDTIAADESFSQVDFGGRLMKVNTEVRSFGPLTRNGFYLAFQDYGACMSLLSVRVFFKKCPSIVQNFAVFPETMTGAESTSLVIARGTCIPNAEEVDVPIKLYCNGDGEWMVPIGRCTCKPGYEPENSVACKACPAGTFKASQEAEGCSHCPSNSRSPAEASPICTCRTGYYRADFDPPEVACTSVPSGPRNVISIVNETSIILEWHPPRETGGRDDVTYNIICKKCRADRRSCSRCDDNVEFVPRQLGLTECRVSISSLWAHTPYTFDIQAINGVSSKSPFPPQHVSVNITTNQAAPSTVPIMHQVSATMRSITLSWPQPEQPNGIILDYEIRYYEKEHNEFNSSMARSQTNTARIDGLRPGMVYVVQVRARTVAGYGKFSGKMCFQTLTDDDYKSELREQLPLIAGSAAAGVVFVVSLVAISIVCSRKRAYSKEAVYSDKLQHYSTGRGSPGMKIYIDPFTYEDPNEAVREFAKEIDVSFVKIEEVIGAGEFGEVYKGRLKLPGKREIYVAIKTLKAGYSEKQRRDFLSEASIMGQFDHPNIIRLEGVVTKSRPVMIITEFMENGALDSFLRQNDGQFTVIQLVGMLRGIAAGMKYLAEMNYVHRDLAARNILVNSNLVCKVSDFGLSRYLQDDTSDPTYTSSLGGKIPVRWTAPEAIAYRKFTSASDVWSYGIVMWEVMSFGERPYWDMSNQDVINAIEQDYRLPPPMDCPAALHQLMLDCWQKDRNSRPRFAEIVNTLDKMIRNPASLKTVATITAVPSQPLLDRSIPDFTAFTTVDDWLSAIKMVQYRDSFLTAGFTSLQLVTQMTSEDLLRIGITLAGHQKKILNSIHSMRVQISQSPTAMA
# Chain of Hck (P08631 whole entry, looked up): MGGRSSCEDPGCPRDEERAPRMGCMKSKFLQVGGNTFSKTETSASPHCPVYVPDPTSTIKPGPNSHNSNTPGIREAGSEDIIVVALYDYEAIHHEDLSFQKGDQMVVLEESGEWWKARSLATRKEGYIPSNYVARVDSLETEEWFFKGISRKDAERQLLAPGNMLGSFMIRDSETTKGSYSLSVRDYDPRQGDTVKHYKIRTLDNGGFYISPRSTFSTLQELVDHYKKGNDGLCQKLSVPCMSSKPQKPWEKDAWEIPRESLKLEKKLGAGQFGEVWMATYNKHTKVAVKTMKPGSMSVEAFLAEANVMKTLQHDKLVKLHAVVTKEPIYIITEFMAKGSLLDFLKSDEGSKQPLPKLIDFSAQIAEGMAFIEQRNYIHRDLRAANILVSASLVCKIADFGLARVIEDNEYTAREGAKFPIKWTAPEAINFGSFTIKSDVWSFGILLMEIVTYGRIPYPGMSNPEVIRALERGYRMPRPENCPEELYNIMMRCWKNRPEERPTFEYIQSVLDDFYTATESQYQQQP
# Chain of FGFR3 (P22607 whole entry, looked up): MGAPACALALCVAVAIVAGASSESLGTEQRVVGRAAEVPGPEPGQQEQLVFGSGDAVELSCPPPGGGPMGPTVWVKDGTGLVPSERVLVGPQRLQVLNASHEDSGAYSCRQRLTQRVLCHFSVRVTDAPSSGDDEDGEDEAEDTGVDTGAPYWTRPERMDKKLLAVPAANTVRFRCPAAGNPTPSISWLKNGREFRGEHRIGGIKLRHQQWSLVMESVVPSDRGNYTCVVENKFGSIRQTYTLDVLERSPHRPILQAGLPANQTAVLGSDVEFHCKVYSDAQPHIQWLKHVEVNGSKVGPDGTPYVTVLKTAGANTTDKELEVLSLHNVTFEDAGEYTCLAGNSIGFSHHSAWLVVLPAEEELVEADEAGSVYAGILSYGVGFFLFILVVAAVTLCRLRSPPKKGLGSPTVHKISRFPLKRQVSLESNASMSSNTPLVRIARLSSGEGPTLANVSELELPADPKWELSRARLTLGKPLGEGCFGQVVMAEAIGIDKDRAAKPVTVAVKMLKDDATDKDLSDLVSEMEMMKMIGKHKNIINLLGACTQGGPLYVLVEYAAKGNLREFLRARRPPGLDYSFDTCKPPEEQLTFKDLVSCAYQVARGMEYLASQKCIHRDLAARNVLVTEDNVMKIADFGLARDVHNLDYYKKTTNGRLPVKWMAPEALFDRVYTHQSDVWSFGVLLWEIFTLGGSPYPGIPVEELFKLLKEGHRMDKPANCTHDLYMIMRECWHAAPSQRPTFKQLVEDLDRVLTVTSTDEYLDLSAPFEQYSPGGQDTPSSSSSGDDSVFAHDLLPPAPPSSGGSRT
Sequence,SH2 binding enrichment (SHP2-C SH2),SH2 binding enrichment (c-Src SH2),SH2 binding enrichment (Grb2 SH2),phosphorylation enrichment (EPHB2),phosphorylation enrichment (Fer (mouse)),phosphorylation enrichment (EPHB1),phosphorylation enrichment (Fes),phosphorylation enrichment (Fyn),phosphorylation enrichment (Jak2),phosphorylation enrichment (AncSZ),phosphorylation enrichment (MERTK),phosphorylation enrichment (FGFR3),phosphorylation enrichment (c-Abl (mouse)),phosphorylation enrichment (FGFR1),phosphorylation enrichment (Hck),phosphorylation enrichment (c-Src)
AGIENYTSRFG [NKD2_Y256],0.625,0.485,0.767,0.386,0.383,0.817,0.719,0.421,0.465,0.569,0.418,0.529,0.585,0.434,0.329,0.426
AGTILSHAHLD [ASS1_Y291_Y291S],0.55,0.374,0.696,0.459,0.374,0.788,0.847,0.367,0.707,0.75,0.289,0.546,0.622,0.364,0.412,0.384
AHAGEHGAEAL [HBA1_Y25_Y25H],0.763,0.484,0.782,0.439,0.419,0.378,0.703,0.354,0.491,0.521,0.382,0.451,0.454,0.476,0.479,0.461
AHAGEYGAGAL [HBA1_Y25_E28G],0.589,0.403,0.776,0.434,0.384,0.376,0.539,0.405,0.608,0.575,0.395,0.485,0.616,0.365,0.49,0.489
AHAGEYGVEAL [HBA1_Y25_A27V],0.79,0.493,0.872,0.631,0.448,0.492,0.9,0.525,0.793,0.83,0.422,0.678,0.595,0.499,0.547,0.402
AHAGKYGAEAL [HBA1_Y25_E24K],0.608,0.452,0.818,0.338,0.342,0.453,0.796,0.423,0.544,0.677,0.347,0.42,0.451,0.4,0.368,0.387
AHPGEYGAEAL [HBA1_Y25_A22P],0.707,0.508,0.728,0.51,0.425,0.516,0.768,0.488,0.563,0.801,0.443,0.559,0.634,0.453,0.486,0.408
AKKKMYSHKTK [AGXT_Y231_R233H],1.42,1.34,1.44,0.823,1.12,1.01,1.63,0.609,3.12,0.961,0.689,2.37,1.62,0.621,0.666,0.727
AKVKPYINGTS [IBTK_Y1064_V1065I],1.05,0.737,0.999,0.274,0.274,0.295,0.503,0.343,0.369,0.471,0.358,0.408,0.404,0.297,0.359,0.294
AKYLGYPPPEI [KDR_Y357],0.749,0.43,0.831,0.535,0.398,0.374,0.849,0.321,0.594,0.543,0.378,0.556,0.538,0.395,0.512,0.385
NHFKIYNLFAE [PTEN_Y68_C71Y_YF],,,,1.14,0.946,0.931,1.33,2.73,0.612,1.14,0.329,1.36,0.573,0.933,1.53,1.64

# Second part, led by results:
SH2 binding enrichment (SHP2-C SH2),SH2 binding enrichment (c-Src SH2),SH2 binding enrichment (Grb2 SH2),Sequence,phosphorylation enrichment (EPHB2),phosphorylation enrichment (Fer (mouse)),phosphorylation enrichment (EPHB1),phosphorylation enrichment (Fes),phosphorylation enrichment (Fyn),phosphorylation enrichment (Jak2),phosphorylation enrichment (AncSZ),phosphorylation enrichment (MERTK),phosphorylation enrichment (FGFR3),phosphorylation enrichment (c-Abl (mouse)),phosphorylation enrichment (FGFR1),phosphorylation enrichment (Hck),phosphorylation enrichment (c-Src)
0.67,0.587,1.09,AFSLKYEQQTQ [SYTL4_Y366],0.624,0.719,0.694,1.21,0.437,0.982,1.03,0.491,0.841,0.564,0.53,0.535,0.364
0.845,0.599,0.844,AGLVQYFMEHH [PTPN11_Y80_E76G_YF],0.592,0.474,0.655,1.12,0.513,0.962,0.955,0.456,0.782,0.741,0.538,0.565,0.452
0.501,0.918,0.72,AGQEGYDRLRP [RAC1_Y64_D63G],0.596,0.347,0.43,0.712,0.34,0.484,0.547,0.36,0.642,0.654,0.562,0.527,0.378
1.19,0.49,1.05,AHARMYGVLPW [PLP1_Y207_D203H],0.462,0.402,0.519,0.617,2.35,0.478,0.496,0.507,0.421,0.58,0.503,3.4,2.35
1.66,1.5,1.21,AHPIIYTIIEA [PYKtide_no-pT_2014],1.3,3.1,5.42,1.21,3.29,0.838,0.892,7.03,1.44,1.85,1.57,2.74,3.47
0.539,0.496,0.725,AKKMKYFEGVS [PRKDC_Y682_I680M],0.3,0.311,0.393,0.559,0.419,0.499,0.493,0.318,0.434,0.404,0.395,0.351,0.394

# — the supplement of paper PMC10065799, “High-throughput profiling of sequence recognition by tyrosine kinases and SH2 domains using bacterial peptide display” (eLife, 2023)
